B1: Ataxin-1 (Homo sapiens), P54253 (parent)
chain: MKSNQERSNECLPPKKREIPATSRSSEEKAPTLPSDNHRVEGTAWLPGNPGGRGHGGGRHGPAGTSVELGLQQGIGLHKALSTGLDYSPPSAPRSVPVATTLPAAYATPQPGTPVSPVQYAHLPHTFQFIGSSQYSGTYASFIPSQLIPPTANPVTSAVASAAGATTPSQRSQLEAYSTLLANMGSLSQTPGHKAEQQQQQQQQQQQQHQHQQQQQQQQQQQQQQHLSRAPGLITPGSPPPAQQNQYVHISSSPQNTGRTASPPAIPVHLHPHQTMIPHTLTLGPPSQVVMQYADSGSHFVPREATKKAESSRLQQAIQAKEVLNGEMEKSRRYGAPSSADLGLGKAGGKSVPHPYESRHVVVHPSPSDYSSRDPSGVRASVMVLPNSNTPAADLEVQQATHREASPSTLNDKSGLHLGKPGHRSYALSPHTVIQTTHSASEPLPVGLPATAFYAGTQPPVIGYLSGQQQAITYAGSLPQHLVIPGTQPLLIPVGSTDMEASGAAPAIVTSSPQFAAVPHTFVTTALPKSENFNPEALVTQAAYPAMVQAQIHLPVVQSVASPAAAPPTLPPYFMKGSIIQLANGELKKVEDLKTEDFIQSAEISNDLKIDSSTVERIEDSHSPGVAVIQFAVGEHRAQVSVEVLVEYPFFVFGQGWSSCCPERTSQLFDLPCSKLSVGDVCISLTLKNLKNGSVKKGQPVDPASVLLKHSKADGLAGSRHRYAEQENGINQGSAQMLSENGELKFPEKMGLPAAPFLTKIEPSKPAATRKRRWSAPESRKLEKSEDEPPLTLPKPSLIPQEVKICIEGRSNVGK

Variants of: B1
Settings: with wdfy3_human WDFY3, Q8IZQ1
Chain of wdfy3_human WDFY3, Q8IZQ1 (Q8IZQ1 whole entry): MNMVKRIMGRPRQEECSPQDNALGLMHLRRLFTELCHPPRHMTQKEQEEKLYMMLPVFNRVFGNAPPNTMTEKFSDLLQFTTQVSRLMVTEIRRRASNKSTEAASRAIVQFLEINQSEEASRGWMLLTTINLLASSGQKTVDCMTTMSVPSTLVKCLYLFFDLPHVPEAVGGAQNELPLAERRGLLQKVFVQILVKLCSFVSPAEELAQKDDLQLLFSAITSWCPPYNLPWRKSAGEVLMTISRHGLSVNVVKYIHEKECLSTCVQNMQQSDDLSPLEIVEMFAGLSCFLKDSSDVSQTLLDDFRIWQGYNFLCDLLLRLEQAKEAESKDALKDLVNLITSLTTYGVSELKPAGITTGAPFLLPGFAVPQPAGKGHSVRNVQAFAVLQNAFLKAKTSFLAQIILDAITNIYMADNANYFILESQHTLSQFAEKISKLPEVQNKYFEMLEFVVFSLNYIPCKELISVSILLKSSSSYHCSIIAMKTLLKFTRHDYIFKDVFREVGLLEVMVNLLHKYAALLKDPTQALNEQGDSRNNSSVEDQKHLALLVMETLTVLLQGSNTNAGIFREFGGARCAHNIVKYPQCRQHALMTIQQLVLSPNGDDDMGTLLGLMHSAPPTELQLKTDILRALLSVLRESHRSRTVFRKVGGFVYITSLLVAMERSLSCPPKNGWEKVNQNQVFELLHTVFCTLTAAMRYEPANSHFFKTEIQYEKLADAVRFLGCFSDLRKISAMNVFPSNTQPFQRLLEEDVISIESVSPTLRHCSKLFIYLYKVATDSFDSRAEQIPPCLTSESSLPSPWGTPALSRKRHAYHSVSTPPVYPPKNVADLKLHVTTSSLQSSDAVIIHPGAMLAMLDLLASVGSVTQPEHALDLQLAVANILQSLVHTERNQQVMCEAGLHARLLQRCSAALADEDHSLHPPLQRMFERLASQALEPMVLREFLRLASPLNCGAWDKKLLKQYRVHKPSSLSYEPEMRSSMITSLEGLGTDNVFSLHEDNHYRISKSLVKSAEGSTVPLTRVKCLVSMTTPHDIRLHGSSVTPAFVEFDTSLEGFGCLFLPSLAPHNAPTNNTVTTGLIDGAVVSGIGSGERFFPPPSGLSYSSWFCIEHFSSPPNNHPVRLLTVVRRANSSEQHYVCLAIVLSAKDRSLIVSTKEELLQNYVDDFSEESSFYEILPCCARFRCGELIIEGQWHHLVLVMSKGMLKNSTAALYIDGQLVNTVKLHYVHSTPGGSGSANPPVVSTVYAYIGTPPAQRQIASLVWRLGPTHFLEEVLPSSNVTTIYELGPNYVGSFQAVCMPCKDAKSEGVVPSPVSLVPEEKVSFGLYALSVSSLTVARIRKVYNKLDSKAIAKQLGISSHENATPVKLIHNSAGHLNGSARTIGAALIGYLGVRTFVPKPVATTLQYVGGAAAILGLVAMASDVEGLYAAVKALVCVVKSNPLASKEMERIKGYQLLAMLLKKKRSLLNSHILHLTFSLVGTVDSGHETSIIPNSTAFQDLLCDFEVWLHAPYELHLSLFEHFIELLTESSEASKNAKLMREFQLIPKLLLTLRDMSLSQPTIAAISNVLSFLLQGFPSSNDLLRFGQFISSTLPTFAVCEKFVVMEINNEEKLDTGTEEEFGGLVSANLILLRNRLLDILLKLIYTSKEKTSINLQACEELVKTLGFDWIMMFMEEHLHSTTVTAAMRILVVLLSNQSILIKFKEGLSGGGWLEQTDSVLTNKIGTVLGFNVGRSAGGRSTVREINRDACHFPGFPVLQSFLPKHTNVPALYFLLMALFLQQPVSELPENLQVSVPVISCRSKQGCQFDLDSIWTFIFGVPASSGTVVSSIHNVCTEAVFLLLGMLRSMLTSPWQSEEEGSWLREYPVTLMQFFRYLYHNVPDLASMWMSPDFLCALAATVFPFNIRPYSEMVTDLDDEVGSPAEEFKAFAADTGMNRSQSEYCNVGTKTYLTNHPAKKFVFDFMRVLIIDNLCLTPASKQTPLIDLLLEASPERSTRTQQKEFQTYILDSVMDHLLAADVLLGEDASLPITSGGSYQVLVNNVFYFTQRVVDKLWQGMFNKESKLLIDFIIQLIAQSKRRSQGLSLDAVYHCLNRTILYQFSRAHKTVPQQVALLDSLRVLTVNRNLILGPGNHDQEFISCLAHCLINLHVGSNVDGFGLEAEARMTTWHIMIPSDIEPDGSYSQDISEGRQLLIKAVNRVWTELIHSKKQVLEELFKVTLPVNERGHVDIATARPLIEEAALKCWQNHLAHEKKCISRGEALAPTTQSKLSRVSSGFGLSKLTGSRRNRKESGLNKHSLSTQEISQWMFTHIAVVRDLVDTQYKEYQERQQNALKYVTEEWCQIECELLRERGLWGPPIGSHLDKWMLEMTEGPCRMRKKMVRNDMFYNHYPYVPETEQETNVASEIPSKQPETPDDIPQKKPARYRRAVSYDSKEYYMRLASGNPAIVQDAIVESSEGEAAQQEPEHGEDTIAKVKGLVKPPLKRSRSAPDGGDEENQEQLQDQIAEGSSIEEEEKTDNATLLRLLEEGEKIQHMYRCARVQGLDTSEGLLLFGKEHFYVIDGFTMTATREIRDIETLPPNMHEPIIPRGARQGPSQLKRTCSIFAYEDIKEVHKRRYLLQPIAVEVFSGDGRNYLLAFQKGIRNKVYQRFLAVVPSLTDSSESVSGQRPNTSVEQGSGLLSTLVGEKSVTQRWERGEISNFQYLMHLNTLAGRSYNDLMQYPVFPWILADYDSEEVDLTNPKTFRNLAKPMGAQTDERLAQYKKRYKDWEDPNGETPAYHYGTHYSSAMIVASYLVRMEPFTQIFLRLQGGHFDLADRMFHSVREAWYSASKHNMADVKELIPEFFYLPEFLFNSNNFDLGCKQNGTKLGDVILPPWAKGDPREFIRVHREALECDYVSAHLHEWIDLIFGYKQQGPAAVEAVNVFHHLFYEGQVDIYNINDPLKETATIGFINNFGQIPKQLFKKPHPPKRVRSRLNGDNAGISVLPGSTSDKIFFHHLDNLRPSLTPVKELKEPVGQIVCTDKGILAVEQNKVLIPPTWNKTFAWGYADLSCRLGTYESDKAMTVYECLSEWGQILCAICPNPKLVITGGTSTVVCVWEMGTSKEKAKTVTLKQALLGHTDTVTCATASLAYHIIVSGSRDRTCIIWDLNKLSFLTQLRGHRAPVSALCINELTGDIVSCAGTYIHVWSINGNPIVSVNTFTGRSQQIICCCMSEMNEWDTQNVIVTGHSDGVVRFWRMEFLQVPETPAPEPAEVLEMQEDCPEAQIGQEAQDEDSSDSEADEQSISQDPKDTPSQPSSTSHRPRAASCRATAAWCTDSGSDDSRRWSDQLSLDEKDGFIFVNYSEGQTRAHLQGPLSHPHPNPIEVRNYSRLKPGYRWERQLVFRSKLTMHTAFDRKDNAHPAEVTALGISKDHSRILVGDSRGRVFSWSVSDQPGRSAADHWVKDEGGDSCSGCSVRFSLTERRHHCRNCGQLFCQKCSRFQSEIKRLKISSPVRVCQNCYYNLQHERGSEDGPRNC

Row | effect of a mutation on the interaction | Variant
1 | disrupting interaction | K771T
